Reference: patent publication US20220332804A1 (CSL INNOVATION, published 2022)
Changes are numbered by the printed parent chain.

What was measured:
human C2 K274A = target: T1, human C2 K274A (human, UniProt P06681 21-752); test: SPR, KD relative to WT C2;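 also: biacore SPR at 37 °C, anti-C2 mAbs captured on anti-human IgG chips with alanine or serine point mutants of C2 as analyte, KD from 1:1 fit compared with wild-type C2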
T1 sequence: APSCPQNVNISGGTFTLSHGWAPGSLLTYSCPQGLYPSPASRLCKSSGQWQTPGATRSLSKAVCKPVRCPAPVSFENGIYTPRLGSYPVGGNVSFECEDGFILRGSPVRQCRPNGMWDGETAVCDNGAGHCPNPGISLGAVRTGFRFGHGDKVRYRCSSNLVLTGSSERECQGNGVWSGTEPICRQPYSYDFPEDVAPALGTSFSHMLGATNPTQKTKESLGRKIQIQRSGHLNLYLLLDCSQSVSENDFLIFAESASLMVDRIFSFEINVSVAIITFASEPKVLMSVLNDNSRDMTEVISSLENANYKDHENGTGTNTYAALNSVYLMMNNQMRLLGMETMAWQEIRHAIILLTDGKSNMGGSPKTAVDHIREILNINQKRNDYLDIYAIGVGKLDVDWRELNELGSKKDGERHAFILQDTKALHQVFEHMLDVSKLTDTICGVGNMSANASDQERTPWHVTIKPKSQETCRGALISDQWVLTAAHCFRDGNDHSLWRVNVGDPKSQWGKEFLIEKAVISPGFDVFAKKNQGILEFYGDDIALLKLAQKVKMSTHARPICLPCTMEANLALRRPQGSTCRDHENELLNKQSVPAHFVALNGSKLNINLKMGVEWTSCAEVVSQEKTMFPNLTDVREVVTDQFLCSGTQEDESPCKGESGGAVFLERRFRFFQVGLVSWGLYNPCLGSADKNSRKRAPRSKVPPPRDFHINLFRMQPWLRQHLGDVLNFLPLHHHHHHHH

human C2 L279A = target: T2, human C2 L279A (human, UniProt P06681 21-752); test: SPR, KD relative to WT C2;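 also: biacore SPR at 37 °C, anti-C2 mAbs captured on anti-human IgG chips with alanine or serine point mutants of C2 as analyte, KD from 1:1 fit compared with wild-type C2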
T2 sequence: T1 sequence with A254K, L259A

B1: RF16-242 (antibody, human IgG4 S228P, lambda, V domains shown)
VH: EVQLLQSGAEVKKPGESLKISCKGSGYSFTSYWIGWVRQMPGKGLEWMGIIYPGDSDTRYSPSFQGQVTISADKSISTAYLQWSSLKASDTAMYYCARRGHYGDYFDYWGQGTLVTVSS
VL: SYELTQPPSVSVSPGQTARITCSGDALPKKYAYWYHQKSGQAPVLVIYEDRRRPSEIPERFSGSSSGTMATLTITGAQVEDEGVYFCYSRDRAGNQRVFGGGTQLTVLG
notes: pH-dependent anti-C2 antibody from a phage display library
Fold diff (human C2 K274A): 12 fold | Fold diff (human C2 L279A): 7 fold
